Test [1] deals with T1, Cyno cMet-ECD-his (cynomolgus monkey).
T1 construct: extracellular domain; Soluble analyte in the ForteBio assay; also called cynomolgus monkey cMet
The experiment in a line: BLI (ForteBio), antibody on anti-hIgG Fc capture biosensor, soluble cMet-ECD-his 2.6-30 nM, 1:1 fit. (In general: In BLI a coated tip is dipped into the sample, and binding shifts an interference pattern.)
Protocol: Briefly, each antibody was bound and immobilized onto an anti-hIgG Fc Capture biosensor and then incubated in the presence of different concentrations (2.6-30 nM) of His-tagged soluble cMet. The kinetics of binding were determined via ForteBio analysis binding using a 1:1 binding fit model.

For test [2], the target named is T2, Human cMet-ECD-his (human, UniProt P08581 25-932).
T2 construct: extracellular domain; Soluble analyte in the ForteBio assay; also called hu cMet; soluble recombinant hu cMet protein; not shown: histidine-containing peptide (His tag)
T2 sequence (P08581 25-932): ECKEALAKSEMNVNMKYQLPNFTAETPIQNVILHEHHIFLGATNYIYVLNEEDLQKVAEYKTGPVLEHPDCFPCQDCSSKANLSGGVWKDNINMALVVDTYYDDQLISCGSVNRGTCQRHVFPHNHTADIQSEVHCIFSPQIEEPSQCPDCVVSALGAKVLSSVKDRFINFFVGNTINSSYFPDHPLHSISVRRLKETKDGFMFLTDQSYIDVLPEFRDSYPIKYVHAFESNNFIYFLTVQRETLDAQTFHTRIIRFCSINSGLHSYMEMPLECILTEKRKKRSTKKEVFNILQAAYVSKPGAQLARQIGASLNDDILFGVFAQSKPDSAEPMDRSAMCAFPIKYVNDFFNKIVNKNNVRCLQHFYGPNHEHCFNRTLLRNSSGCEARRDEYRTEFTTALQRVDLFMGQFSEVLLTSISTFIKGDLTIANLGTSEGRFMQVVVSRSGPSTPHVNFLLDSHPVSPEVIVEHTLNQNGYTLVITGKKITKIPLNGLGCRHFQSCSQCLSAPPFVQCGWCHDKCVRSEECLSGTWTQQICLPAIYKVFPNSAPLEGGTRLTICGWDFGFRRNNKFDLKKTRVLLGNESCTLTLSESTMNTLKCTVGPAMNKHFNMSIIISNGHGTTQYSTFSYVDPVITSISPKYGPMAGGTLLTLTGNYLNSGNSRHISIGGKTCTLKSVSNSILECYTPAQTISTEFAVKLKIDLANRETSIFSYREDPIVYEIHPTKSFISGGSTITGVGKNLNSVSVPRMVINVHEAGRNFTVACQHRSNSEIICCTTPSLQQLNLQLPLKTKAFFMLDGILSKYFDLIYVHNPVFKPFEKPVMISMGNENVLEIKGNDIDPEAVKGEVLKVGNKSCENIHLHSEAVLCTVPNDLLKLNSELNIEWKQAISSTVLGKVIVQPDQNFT
Described as above.

B1: hucMet27v1.2 (antibody, human IgG1, kappa, V domains shown)
VH: EVQLVESGGGLVQPGGSLRLSCAASGFTFSSYDMSWVRQTPGKGLELVATINSNGVSIYYPDSVKGRFTISRDIAKNTLYLQMSSLRAEDTAMYYCAREEITTEMDYWGQGTSVTVSS
VL: DIVLTQSPASLAVSPGQRATISCRASESVDSYGNSFIHWYQQKPGQPPKLLIYRASNLESGIPARFSGSGSRTDFTLTINPVEANDVATYYCQQSNEEPLTFGGGTKLELKR
notes: also called hu247.27.16 v1.2 (resurfaced); hu247.27.16 LC1.2 / HC1.0
The term Kd denotes the concentration at which binding is half-saturated. In general, koff refers to the rate constant with which the complex falls apart. A higher koff goes with fast dissociation. What is called kon is a measure of how fast the partners come together. Lower therefore signals slow association. In test [1], B1 displayed a dissociation constant (Kd) of 0.928 nM, a koff of 0.000196 s⁻¹ and an association rate constant (kon) of 212000 M⁻¹ s⁻¹. In test [2], this molecule showed a Kd of 0.989 nM, a koff of 0.000233 s⁻¹ and an on-rate (kon) of 236000 M⁻¹ s⁻¹.

B2: hucMet27Gv1.3 (antibody, human IgG1, kappa)
light: EIVLTQSPATLSLSPGERATLSCRASESVDSYGNSFIHWYQQKPGQAPRLLIYRASNLESGIPARFSGSGSGTDFTLTISSLEPEDFAVYYCQQSNEEPLTFGQGTKVELKRTVAAPSVFIFPPSDEQLKSGTASVVCLLNNFYPREAKVQWKVDNALQSGNSQESVTEQDSKDSTYSLSSTLTLSKADYEKHKVYACEVTHQGLSSPVTKSFNRGEC
heavy: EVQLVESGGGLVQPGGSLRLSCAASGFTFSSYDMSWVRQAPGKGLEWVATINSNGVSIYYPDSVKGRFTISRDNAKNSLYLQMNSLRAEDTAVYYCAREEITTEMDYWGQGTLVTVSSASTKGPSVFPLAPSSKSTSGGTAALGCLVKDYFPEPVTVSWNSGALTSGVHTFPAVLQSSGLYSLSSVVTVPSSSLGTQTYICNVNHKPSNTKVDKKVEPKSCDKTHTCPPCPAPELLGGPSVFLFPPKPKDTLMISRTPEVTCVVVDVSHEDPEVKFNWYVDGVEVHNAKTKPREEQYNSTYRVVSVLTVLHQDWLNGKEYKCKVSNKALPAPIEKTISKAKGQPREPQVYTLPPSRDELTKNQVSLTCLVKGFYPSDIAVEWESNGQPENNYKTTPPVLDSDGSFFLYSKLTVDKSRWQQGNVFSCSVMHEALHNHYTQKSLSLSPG
notes: CDR-grafted cMET-27 with one S49A backmutation in VH; preferred construct
In test [1], B2 yielded a dissociation constant (Kd) of 1.94 nM, a koff of 0.000415 s⁻¹ and a kon of 214000 M⁻¹ s⁻¹. Also, in test [2], the Kd amounted to 1.81 nM, the koff turned out to be 0.000478 s⁻¹ and the kon is 264000 M⁻¹ s⁻¹.

B3: hucMet27Gv1.3HingeIgG2S127C (antibody)
light: EIVLTQSPATLSLSPGERATLSCRASESVDSYGNSFIHWYQQKPGQAPRLLIYRASNLESGIPARFSGSGSGTDFTLTISSLEPEDFAVYYCQQSNEEPLTFGQGTKVELKRTVAAPSVFIFPPSDEQLKSGTASVVCLLNNFYPREAKVQWKVDNALQSGNSQESVTEQDSKDSTYSLSSTLTLSKADYEKHKVYACEVTHQGLSSPVTKSFNRGEC
heavy: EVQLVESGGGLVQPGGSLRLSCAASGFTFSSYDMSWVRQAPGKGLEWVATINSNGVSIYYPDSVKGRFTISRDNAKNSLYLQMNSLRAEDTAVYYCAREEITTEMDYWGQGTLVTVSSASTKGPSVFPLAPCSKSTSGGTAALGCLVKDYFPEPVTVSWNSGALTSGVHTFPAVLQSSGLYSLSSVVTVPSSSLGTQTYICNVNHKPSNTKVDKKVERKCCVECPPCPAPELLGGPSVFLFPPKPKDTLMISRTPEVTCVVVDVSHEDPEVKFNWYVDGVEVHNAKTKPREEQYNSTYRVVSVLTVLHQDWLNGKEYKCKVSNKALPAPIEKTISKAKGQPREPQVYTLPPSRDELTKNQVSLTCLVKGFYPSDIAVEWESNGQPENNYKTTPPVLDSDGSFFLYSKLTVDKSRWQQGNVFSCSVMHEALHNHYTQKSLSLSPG
In test [1], B3 showed a Kd of 1.47 nM, an off-rate constant (koff) of 0.00045 s⁻¹ and a kon of 307000 M⁻¹ s⁻¹. Also, in test [2], binding was put at a Kd of 1.67 nM, the off-rate constant (koff) is 0.000436 s⁻¹ and the kon came to 235000 M⁻¹ s⁻¹.

B4: hucMet27Gv1.3Hinge28 (antibody)
light: EIVLTQSPATLSLSPGERATLSCRASESVDSYGNSFIHWYQQKPGQAPRLLIYRASNLESGIPARFSGSGSGTDFTLTISSLEPEDFAVYYCQQSNEEPLTFGQGTKVELKRTVAAPSVFIFPPSDEQLKSGTASVVCLLNNFYPREAKVQWKVDNALQSGNSQESVTEQDSKDSTYSLSSTLTLSKADYEKHKVYACEVTHQGLSSPVTKSFNRGEC
heavy: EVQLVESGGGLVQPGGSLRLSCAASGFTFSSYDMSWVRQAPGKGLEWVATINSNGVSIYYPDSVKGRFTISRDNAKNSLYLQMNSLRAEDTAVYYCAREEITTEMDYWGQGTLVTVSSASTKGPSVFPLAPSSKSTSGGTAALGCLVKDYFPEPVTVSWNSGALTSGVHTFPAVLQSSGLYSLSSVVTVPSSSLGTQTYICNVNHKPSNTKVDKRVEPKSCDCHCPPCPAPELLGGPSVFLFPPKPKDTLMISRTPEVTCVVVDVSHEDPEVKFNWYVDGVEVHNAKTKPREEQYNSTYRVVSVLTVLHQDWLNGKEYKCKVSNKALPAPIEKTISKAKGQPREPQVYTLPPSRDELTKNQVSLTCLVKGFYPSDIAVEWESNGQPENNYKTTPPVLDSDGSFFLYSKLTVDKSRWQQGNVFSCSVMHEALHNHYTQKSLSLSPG
notes: Hinge#28 variant of hucMet27Gv1.3
In test [1], B4 gave an equilibrium dissociation constant (Kd) of 1.68 nM, a koff of 0.000564 s⁻¹ and a kon of 336000 M⁻¹ s⁻¹. In test [2], the Kd was 1.96 nM, the koff came to 0.000451 s⁻¹ and the kon was 230000 M⁻¹ s⁻¹.

B5: hucMet27Gv1.3Hinge26C442 (antibody)
light: EIVLTQSPATLSLSPGERATLSCRASESVDSYGNSFIHWYQQKPGQAPRLLIYRASNLESGIPARFSGSGSGTDFTLTISSLEPEDFAVYYCQQSNEEPLTFGQGTKVELKRTVAAPSVFIFPPSDEQLKSGTASVVCLLNNFYPREAKVQWKVDNALQSGNSQESVTEQDSKDSTYSLSSTLTLSKADYEKHKVYACEVTHQGLSSPVTKSFNRGEC
heavy: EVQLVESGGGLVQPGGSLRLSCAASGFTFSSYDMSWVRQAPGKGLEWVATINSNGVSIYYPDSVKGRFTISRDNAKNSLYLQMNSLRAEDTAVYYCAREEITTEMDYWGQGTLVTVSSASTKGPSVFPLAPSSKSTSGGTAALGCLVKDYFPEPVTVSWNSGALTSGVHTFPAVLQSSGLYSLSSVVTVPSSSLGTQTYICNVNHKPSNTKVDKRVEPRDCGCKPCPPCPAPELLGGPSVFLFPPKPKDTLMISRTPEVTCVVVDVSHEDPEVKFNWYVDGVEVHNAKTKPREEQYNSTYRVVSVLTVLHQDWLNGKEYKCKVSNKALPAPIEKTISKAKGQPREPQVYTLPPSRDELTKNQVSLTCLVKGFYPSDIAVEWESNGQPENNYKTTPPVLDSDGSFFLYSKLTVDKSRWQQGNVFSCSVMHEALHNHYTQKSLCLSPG
notes: Hinge#26 and C442 (Cysmab) variant of hucMet27Gv1.3
In test [1], B5 had a Kd of 1.57 nM, an off-rate (koff) of 0.000496 s⁻¹ and a kon of 317000 M⁻¹ s⁻¹. In test [2], this molecule gave a Kd of 1.9 nM, an off-rate (koff) of 0.000497 s⁻¹ and a kon of 262000 M⁻¹ s⁻¹.

B6: hucMet27Gv1.2 (antibody, human IgG1, kappa, V domains shown)
VH: EVQLVESGGGLVQPGGSLRLSCAASGFTFSSYDMSWVRQAPGKGLELVATINSNGVSIYYPDSVKGRFTISRDIAKNSLYLQMNSLRAEDTAVYYCAREEITTEMDYWGQGTLVTVSS
VL: EIVLTQSPATLSLSPGERATLSCRASESVDSYGNSFIHWYQQKPGQAPRLLIYRASNLESGIPARFSGSGSGTDFTLTISSLEPEDFAVYYCQQSNEEPLTFGQGTKVELKR
notes: CDR-grafted cMET-27 with backmutations only in the VH domain (W47L, S49A, N73I); also called v1.2 (CDR-grafted)
In test [1], B6 returned a Kd of 0.614 nM, a koff of 0.000148 s⁻¹ and a kon of 241000 M⁻¹ s⁻¹. In addition, in test [2], the Kd is 0.941 nM, the koff was determined as 0.000154 s⁻¹ and the kon is 266000 M⁻¹ s⁻¹.

B7: hucMet27Gv1.3C442 (antibody)
light: EIVLTQSPATLSLSPGERATLSCRASESVDSYGNSFIHWYQQKPGQAPRLLIYRASNLESGIPARFSGSGSGTDFTLTISSLEPEDFAVYYCQQSNEEPLTFGQGTKVELKRTVAAPSVFIFPPSDEQLKSGTASVVCLLNNFYPREAKVQWKVDNALQSGNSQESVTEQDSKDSTYSLSSTLTLSKADYEKHKVYACEVTHQGLSSPVTKSFNRGEC
heavy: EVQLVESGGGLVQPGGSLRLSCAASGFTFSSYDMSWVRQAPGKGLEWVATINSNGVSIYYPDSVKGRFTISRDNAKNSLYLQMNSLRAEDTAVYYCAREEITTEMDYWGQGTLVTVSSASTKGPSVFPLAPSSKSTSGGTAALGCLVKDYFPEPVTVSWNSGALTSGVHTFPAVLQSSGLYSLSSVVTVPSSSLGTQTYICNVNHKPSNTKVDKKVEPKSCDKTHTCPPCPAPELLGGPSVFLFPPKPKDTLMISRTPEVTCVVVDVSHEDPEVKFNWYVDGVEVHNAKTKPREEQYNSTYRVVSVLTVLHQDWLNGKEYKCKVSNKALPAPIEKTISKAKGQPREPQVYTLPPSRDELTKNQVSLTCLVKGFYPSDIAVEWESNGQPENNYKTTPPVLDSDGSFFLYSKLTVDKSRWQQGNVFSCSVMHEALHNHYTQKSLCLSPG
notes: Cysteine-engineered (C442, Cysmab) form of hucMet27Gv1.3, tested unconjugated
For B7, in test [1], the affinity, expressed as Kd, was 1.6 nM; the off-rate (koff) amounted to 0.000439 s⁻¹; the kon was determined as 273000 M⁻¹ s⁻¹. For the same molecule, in test [2], the Kd is 1.64 nM, the off-rate constant (koff) amounted to 0.000447 s⁻¹ and the kon came to 272000 M⁻¹ s⁻¹.

B8: hucMet22Gv2.2 (antibody, V domains shown)
VH: QVQLVQSGAEVKKPGASVKVSCKASGYTFTDYNMDWVRQAPGQRLEWIGDLNPNNGATIYNQKFKGRATLTVDMSASTAYMELSSLRSEDTAVYYCARGNYYGNYYYLMDYWGQGTSVTVSS
VL: DIQMTQSPSSLSASVGDRVTITCRASENIYSTLAWYQQKPGKAPKLLVYAATNLADGVPSRFSGSGSGTDYTLTISSLQPEDFATYYCQHFWGTPYTFGQGTKVEIKR
notes: also called humanized (CDR-grafted) cMET-22
Turning to B8, in test [1], the Kd worked out at 3.62 nM, the koff was determined as 0.00128 s⁻¹ and the kon was determined as 353000 M⁻¹ s⁻¹. In test [2], binding was characterised by a dissociation constant (Kd) of 4.77 nM, the koff came to 0.00213 s⁻¹ and the kon is 445000 M⁻¹ s⁻¹.
